# According to the DeepSol protein solubility set:
# Experiment: soluble on expression in E. coli; label from the status in PepcDB or PDB records
row,Sequence,soluble on expression in E. coli
1,EERFGHLLHKVEWVSLGGGIHFTGEDYAVDAFCARLKAFSEKYGVQVYLEPGEAAITNSASLEVTVLDTLYNGKHLAVVDSSIEAHLLDLLIYRLNAKMAPNDGEHTYMVCGKSCLAGDIFGEYQFDRPLAIGDRLSFIDTAGYTMVKKNWFNGLKMPSIVVKQLDGSVEVVREFGFEDYVSSLS,not soluble
2,MAHHHHHHMNEPDAALEGVVDLTSNNFDSSVGKDVAALVEFYAPWCGHCKNLVPEFAKLGRAAAGAKDKVLIAKVDATAQKDLATRFEVNGYPTILFFPAGSQKPEKYSEGREAKAFVSYLNNQIKGLNLFLPREHKYVMALDQSNFDKVALDEGKDAFVLFYAPWCGHCKRLHPSFESLAKVYQNEKDLIIANVDADDKSNSEVTKRYKVEGYPTLVFFPKGNKGNPVNYEEGRTLDDMIKFVNERTGKKRTSSGDFDKTVGVDETVTNLMKEMAQSSKNKEERERLLAQIQQAVSPKALGEGAMHYIRIATNVLENGHEYISKEHERVGRLLKGSLTGPKRDSLTIRFNILSAIKGE,soluble
3,MGKITGFLEIERHDRKYTPVAERVKHFHEFVVPLTERETRDQAARCMNCGIPYCHGTGSVAPGTPGCPVNNQIPDFNDLVYQGNWEEASRNLHSTNNFPEFTGRICPAPCEASCTLNIDDNPVTIKTIECAIVDRAWDNGWLKPEVASVKTGKKVAVIGSGPAGMACAQQLARAGHDVHLFEKFAKAGGLLRYGIPDFKMEKGIIDRRVKQMEGEGVTFHYNSHVGADGNVDPREMLNEYDAVALTGGAEAPRDLPIPGRDLQGIHYAMDFLPQQNRRVSEEPLNGVTEILAGGKHVVVIGGGDTGSDCIGTSLRQGALSVTQLEIMPAPPERENKGLTWPNWPLKMRTSSSQAEGAIREFAVLTQKFSGENGQVKKLHCVRVDDKFKPIAGTEFELDAELVLLAMGFVHPVHEGLLKLLSVELDPRGNVKANTLDYQTSRPNVFTAGDMRRGQSLVVWAIREGRLCARSIDTFLMGKTDLPRLEHHHHHH,soluble
4,MAAQKSALILLPPEDAEEIEVIVTGDVLVRGGLQVLYAGSSTEPVKCAKGARIVPDVALKDVKNKTFDIIIIPGGPGCSKLAECPVIGELLKTQVKSGGLIGAICAGPTVLLAHGIVAERVTCHYTVKDKMTEGGYKYLDDNVVISDRVITSKGPGTAFEFALKIVETLEGPEKTNSLLKPLCLAK,not soluble
5,MGSDKIHHHHHHMAFIKPEQQFNPDALHNLVIGIAADMGKHDSGMHHHHKAQLLYASAGCMRFSLADTQVVLPPTRAAWLPAGVEHHVTMRNVVAYRSLYFEPEAVASLPSEVTIFHVNPLLKALIDTMSYWPWNKPRYSQHNAFALFCEELENAKAENLALPLPQDKRLQTWLKQVLQQEMQPANLKEMAIEIGASERTISRIFSSQTGMAYQAWRQQWRLLSAIEQLAAGTSVAQAGFNLQFSSDSAFISFFKQYTGTTPAQYFK,not soluble
6,MGSDKIHHHHHHMRAFEKIPAFQQWQKVEAIHRGWSTDLKFKVTKNQETFLLRIFQQEELLAKQQEYQFIKKVAALGFPSSKPFLCAPIPESEQGYMLLTYLEGEDLSDVLPALSPKRQLNLGVEAGRYLNKIHKLLLPERISQREIAQNLYEKKQSQLNKYKESQFCMPYQQPIISYLEKQLPLLQQRPVVYQHGDFHVGNFIYLPTRQVGVIDFNRWDFGDPYEEFYKLQFFSRNVSPLFAYGQLQGYFAGKVPTLFWQFQKLYTFHAGLYSLVWALSFGEKEIRTMEQQYQQLLEDYNCGELLVPKWFSTIQRKGLRF,not soluble
7,MAEIQFSKGVAETVVPEVRLSKSKNGQSGMAKFYFLEPTILAKESTDDITGMYLIDDEGEIITREVKGKFINGRPTAIEATVILNSQPEWDRFMRFMERYGAENGLGFSKSELEHHHHHH,soluble
8,MGSDKIHHHHHHMLDKIELFILDMDGTFYLDDSLLPGSLEFLETLKEKNKRFVFFTNNSSLGAQDYVRKLRNMGVDVPDDAVVTSGEITAEHMLKRFGRCRIFLLGTPQLKKVFEAYGHVIDEENPDFVVLGFDKTLTYERLKKACILLRKGKFYIATHPDINCPSKEGPVPDAGSIMAAIEASTGRKPDLIAGKPNPLVVDVISEKFGVPKERMAMVGDRLYTDVKLGKNAGIVSILVLTGETTPEDLERAETKPDFVFKNLGELAKAVQ,not soluble
9,MGSDKIHHHHHHMKMTFCRAVCLAAAFLLMGCDEAPETTTASPAAQVLEGKTMGTLWRVSVVGIDAKRAAELQTKIQTQLDADDWLLSTYKNDSALMRFNHSRSLAPWPVSEAMADIVTSALRIGAKTDGAMDITVGPLVNLWGFGPDRQPLHIPTPAQIDAAKAKTGLQHLQVIDRAGHQFLQKDLPDLYVDLSTVGEGYAADHLARLMEQEGIARYLVSVGGALSSRGMNAQGQPWRVAIQKPTDRENAVQAIVDINGHGISTSGSYRNYYELDGKRVSHVIDPQTGRPIEHNLVSVTVIAPTALEADGWDTGLMVLGTQKAQEVVRREGLAVFMIMKEGEGFKTWMSPQFKTFLVSDKN,not soluble
10,MAHHHHHHMDVKEYTHNIIDIDISNHIKIRSSNNYNNKKLKETIRQNAKKIRDITFKYWIKEKQLQSGNFVINDENINDKMIIENKKDIINNINNDKKISYSYVDSFQTCVTNSKDEEGVLYIDDLYTYLIRQLYILFCSLEVRKKKNNVQFDFTRIYKYTYNYKKLESHISYEYLKKYDINDDIIKNDIENFHFYAYDHNIEDPKKYCDMEENYNNANYNICIYLPTKKEIDILFIIDQLYDYFYFVLYVPITTKEKDLIFFPFNIKNNLLVQYHFNIFIPYDYIYYTTYKKMNNFILNYSKIVKNYELSNSLYKHNDTIILIPLIAYNKLGYRIGSGKGYYDKTLTKTRKKNDIIKQIKNIQMNDNIITNNKDHDIQKENHLYLGTKNDTNNIICSNVKNIKHKTFNNEIEIYTQNKQKIYFNEIKIGVSFEMFLYDIDFSETTDLILDYMINENNIYHFIL,not soluble
11,MRPDDKYHEKQAQVEATKLKQKVEALSPGDRQQIYEKGLELRSQQSKPQDASCLPALKVSDIEPTIPVTELDVVLTAGDIPVQYCAQPTNGMVYFRAFSSLNTLPEELRPYVPLFCSVLTKLGCGLLDYREQAQQIELKTGGMSASPHVLPDDSHMDTYEQGVLFSSLCLDRNLPDMMQLWSEIFNNPCFEEEEHFKVLVKMTAQELANGIPDSGHLYASIRAGRTLTPAGDLQETFSGMDQVRLMKRIAEMTDIKPILRKLPRIKKHLLNGDNMRCSVNATPQQMPQTEKAVEDFLRSIGRSKKERRPVRPHTVEKPVPSSSGGDAHVPHGSQVIRKLVMEPTFKPWQMKTHFLMPFPVNYVGECIRTVPYTDPDHASLKILARLMTAKFLHTEIREKGGAYGGGAKLSHNGIFTLYSYRDPNTIETLQSFGKAVDWAKSGKFTQQDIDEAKLSVFSTVDAPVAPSDKGMDHFLYGLSDEMKQAHREQLFAVSHDKLLAVSDRYLGTGKSTHGLAILGPENPKIAKDPSWIIR,not soluble
12,MDNTYRDEKVNGCGPGDVNLMLELLEKGEKIGGKSADQSSLFVALCRSVGIPAREVFGIRVLPSSFSEGLSIKPGSKDITKAQHCRAEFWAGEWIPVDPADVTKLILKEKLPRNHPRVNFARRYFFGNWDPHWIAYNWGRDFVLEPPQRVKPLNLFGYPYAEVKGEPLNWLEPKSFVYRIKLVRA,not soluble
13,MGSDKIHHHHHHMQQAIEQTATGGALRFNGICKVFPGVKALSDISFEARPGSVHALMGENGAGKSTLLKILGGSYQPNSGTLQIGEHSYQFKSTAESIAAGVAVIHQELHLVPEMTVAENLLLGHMPNRFGLINRGAMYRRAGELLKGLADEIDPRTRLGDLSLGQRQLVEIAKAMSRNAHVIAFDEPTSSLSAREIDRLMAIIVRLRDEGRVILYVSHRMEEIFRVCDAVTVFKDGRFVKTFEQMADLDHDRLVTCMVGRDIQDIYNYRPRQHQGPSLRVTGLLGLGLQEPVSFAVQKGEVLGFFGLVGAGRTELFRILSGLTRSTAGSLQLDGQPLTLKSPRDAIAAGVLLCPEDRKKEGIVPLSSVAENINIGARPRHVNLGCLIQGGWERDNARAQIKSMNVKTPSPEQQIMFLSGGNQQKAILGRWLSMPMKVLLLDEPTRGIDVGAKSEIYEIIHTLAADGIAVIVVSSDLMEVMGISDRILVMSEGAITGELNRDEADESRLLQLALPRTRG,not soluble
14,SLDLFISRHLEQLNSLSFKATPLFEHKAQFYAAPSYLEKYGTPQNVEELTKHNILIWGEKPAREIKTNRGKRMSLSGNFATTNPEALFHGAKRGMGILMTNNVMIKDDLKSGALVPILPDVTADEATVYAYYPKLDYQHTRTQLFLDYLKSRLEEEKRI,not soluble
15,GMEYQLQQLASLTLVGIKETYENGRQAQQHIAGFWQRCYQEGVIADLQLKNNGDLAGILGLCIPELDGKMSYMIAVTGDNSADIAKYDVITLASSKYMVFEAQGAVPKAVQQKMEEVHHYIHQYQANTVKSAPFFELYQDGDTTSEKYITEIWMPVKG,soluble
16,MLSPEQDLNRHADPFPFNEEPSSQDLDSLRDLVTEAETLQDMVTGGLSIDAILNVLDATGEDETIWPVEKTPPDILHLLSPEYAPETAHNTVLPDLTRKEHRIIGIDSHYRINPAQHGEIYHDKQ,not soluble
17,MCNLTIHNIENYENDPQLRLIPWILWENLFQHFISANELSLMTLSYKEAIHIFLPGTKNMEQVRQLLCLYYAHYNRNAKQLWSDAHKKGIKSEVICFVAAITGCSSALDTLCLLLTSDEIVKVIQAENYQAFRLAAENGHLHVLNRLCELAPTEIMAMIQAENYHAFRLAAENGHLHVLNRLCELAPTEATAMIQAENYYAFRWAAVGRGHHNVINFLLDCPVMLAYAEIHEFEYGEKYVNPFIARHVNRLKEMHDAFKLSNPDGVFDLVTKSECLQGFYMLRNLIRRNDEVLLDDIRFLLSIPGIKALAPTATIPGDANELLRLALRLGNQGACALLLSIPSVLALTKANNYYINETGGRLDLRAVALEHHHHHH,soluble
18,MNMANVKIKIRDGLIDRLRNMSGITSDEAFARTIGTSRSTLVDVKTGEREPSLAFAIGIAQAFGLGLSEIVTWETETTAA,not soluble
19,MSLSCWKPLSKEEFEAIVSKYKDNPKIEIDYENLKFIPKFNEQIKKYYSNKIKGAKVENLVNEVYEAWFDYIIRIYERPKEKDILMFLPCAAKKPYYKSKTHRTIQRAISGFQIFNRIHRVIVSNPGIIPWEFHTYWPFNSYDWPEWEETEDIKKLYYWVTYKRVKEFLRRHQYNYYTVYMKPDSLTYKAVMDASKELNIKIIPLLDEKTYEKCKGQGNPLVKEPCIESLKNNLKQLQKQIYEGSNSEGHHHHHH,soluble
20,MNSLPVAIIGGGPVGLAAAAHLAVRDVPFVLFEGKSEVGASILEWKHVSLFSPWKYNIDRAAKSLLEKESWKEPAGDRLPTGEQLVRDYLQPLAETKALKPYIYTNAPVQSIYRKGIDKIKDHNRENTPFIIRYKQDNDQKTLRARAVIDATGTWFSPNPIGAGGVPAIGEEEAKDSIYYGIPDVKGKDRSRYEGKTILVVGSGHSAIHTLLDLAQLKEAAPSTRILWAIRRNSPNGLFGGGQEDALPARGQLGLALEALLSKQKVELISSFEMEQIDRVEGRLSVVGVQNESPISLPLVDEIVANTGARPTVDYHRDIRYQLDSKLESVPALAPLIDPNIHSCGTVRPHGEKELRQPEKNFYIAGVKSYGRAPTFLLATGYEQVRSIVASLAGSKKEAERVELQLPKTGVCKSDFLAKRSCCLEHHHHHH,soluble
21,MSAQLTDSYGLLEARVTELKGELADAGVQRLQELAEKERLANRLQNLLDLLPGGVIVIDGMGVVREANPAAIDLLGQPLLGMLWRHVISRCFAPREDDGHEVSLKDGRRLSIATRSLDAEPGQLVLLNDLT,not soluble
